Measured values: US5717058A, “Peptide inhibitors of tax-dependent transcription” (priority 1994, dated 1998)
Entries after “also recorded” stand apart in the source; their conditions may differ. No end group written: not given here.

How the values were obtained:
[1] = solubility in aqueous solution; format: physicochemical
Tax-CREB interaction = target: T1, Tax-CREB interaction (Homo sapiens, UniProt P16220); assay: EMSA, inhibition of Tax-mediated enhancement of CREB binding to HTLV-I 21 bp repeat DNA; conditions: for fold enhancement: 200 nM Tax
T1 construct: made in house
Source text: The HTLV-I transactivator Tax enhances the binding of CREB to the 21 bp repeat sequences contained in the HTLV-I LTR (Zhao and Giam (1992) PNAS 89:7070-7074; Franklin et al. 1993 J. Biol. Chem. 268:21225-21231; Wagner and Green, 1993 Science 262:395-399). We are testing whether peptides representing portions of the primary sequence of Tax can disrupt the Tax-CREB interaction as measured by EMSA.
Purified recombinant CREB was isolated as previously published (Franklin et al. 1993 J. Biol. Chem. 268:21225-21231) and active DNA-binding CREB was purified by heparin-agarose chromatography. Purified recombinant TaxH6 (contains a six-histidine purification tag at the C-terminus of Tax) was isolated an purified as previously published (Zhao and Giam (1991) PNAS 88:12445-11449; Franklin et al. 1993 J. Biol. Chem. 268:21225-21231). Peptides were synthesized and purified as described in Example 1. The third HTLV-I 21 bp repeat (Seq. ID. No. 43) was cloned into the Bgl II site of pUC19. The 70 bp DNA probe fragment was excised with Kpn I and Hind III, phosphatased and gel purified.
EMSA reactions contained 0.1-2.0 nM [^32 P]end-labeled double stranded site 3 probe, 5-50 ng poly (dI-dC) carrier DNA, 1-5 nM purified recombinant CREB, 100-200 nM purified recombinant TaxH6, 15 mM HEPES pH 8.0, 1.5% DMSO, 25 mM Tris-HCl pH 7.9, 6.25 mM MgCl2, 0.5 mM EDTA, 0.5 mM DTT, 60-120 mM KCl, and 10% (v/v) glycerol, and candidate peptide inhibitors in a 20 μl reaction volume. CREB was incubated with the peptides or mock buffer (5% DMSO 50 mM HEPES pH 8.0) for 2-5 min. at room temp. then TaxH6 and DNA mixture were added. The complete reaction mixture was incubated 10-20 min. further at room temp. then analyzed on 5% non-denaturing polyacrylamide gels (49:1, acrylamide:N,N-methylene bisacrylamide). The electrophoresis buffer contained 0.04M Tris, 0.306M glycine, pH 8.5, and 0.1% Nonidet P-40. Gels were dried were autoradiographed. Relative amounts of protein-DNA complex were quantitated using Phosphor Image Analysis.
The primary amino acid sequence of Tax was divided into 29 peptides 20 amino adds in length with an overlap of eight amino acids (see Detailed Description of the Invention and Example 1). The number of the first amino acid in each peptide corresponds to its position in the primary sequence of Tax. Six peptides were tested by EMSA for inhibition of Tax-mediated enhancement. The percentage of radiolabeled DNA probe shifted into protein-DNA complexes in each reaction was quantitated by phosphorimage analysis. Fold enhancement was calculated by dividing the amount of probe shifted in each reaction by the amount of probe shifted in reactions containing CREB, DNA and mock peptide buffer (Table 1). Reactions in Table 1 contained 0.5 nM radiolabeled DNA probe, 10 ng poly dIdC, 1.25% v/v DMSO, 12.5 mM HEPES pH 8.0, 25 mM Tris pH 7.9, 6.25 mM MgCl2, 75 mM KCl, 0.5 mM EDTA, 0.5 mM DTT, 10% v/v glycerol, and CREB, Tax and peptide as indicated in a final volume of 20 μL.
Reactions in Table 2 contained 0.5 nM radiolabeled DNA probe, 10 ng poly dIdC, 1.75% v/v DMSO, 17.5 mM HEPES pH 8.0, 25 mM Tris pH 7.9, 6.25 mM MgCl2, 75 mM KCl, 0.5 mM EDTA, 0.5 mM DTT, 10% v/v glycerol, and CREB, Tax and peptide as indicated in a final volume of 20 μL. Protein-DNA complexes were quantitated by phosphorimage analysis. Fold enhancement was calculated by dividing the amount of complex formed in each reaction by the amount of complex formed in a reaction containing CREB, DNA, mock Tax buffer and mock peptide buffer.
Reactions in Table 3 contained 0.5 nM radiolabeled DNA probe, 10 ng poly dIdC, 1.75% v/v DMSO, 17.5 mM HEPES pH 8.0, 25 mM Tris pH 7.9, 6.25 mM MgCl2, 75 mM KCl, 0.5 mM EDTA, 0.5 mM DTT, 10% v/v glycerol, and CREB, Tax and peptide as indicated in a final volume of 20 μL. Amount of complex was quantitated by densitometry (PDI). […]

T1 sequence (P16220 whole entry): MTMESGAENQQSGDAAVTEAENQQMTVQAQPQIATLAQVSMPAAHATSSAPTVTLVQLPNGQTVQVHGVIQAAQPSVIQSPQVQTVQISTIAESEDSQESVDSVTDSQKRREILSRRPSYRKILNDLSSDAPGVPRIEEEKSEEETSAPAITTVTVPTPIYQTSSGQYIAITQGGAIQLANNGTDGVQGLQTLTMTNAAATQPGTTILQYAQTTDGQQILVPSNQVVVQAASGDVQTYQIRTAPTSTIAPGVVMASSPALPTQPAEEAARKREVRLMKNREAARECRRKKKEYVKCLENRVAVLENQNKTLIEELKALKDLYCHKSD

**Q.** With `CC(C)C[C@H](NC(=O)[C@H](CC(C)C)NC(=O)[C@H](Cc1c[nH]cn1)NC(=O)[C@H](CC(C)C)NC(=O)[C@H](CO)NC(=O)[C@H](Cc1c[nH]cn1)NC(=O)[C@H](Cc1ccccc1)NC(=O)[C@@H](N)CO)C(=O)N[C@@H](Cc1ccccc1)C(=O)N[C@@H](CCC(=O)O)C(N)=O` [TX301-310, SFHSLHLLFE] as the compound, how does the “solubility in aqueous solution, in words” value [1] read?
**A.** The value was “sparingly soluble”.

**Q.** With `CC(C)C[C@H](NC(=O)[C@H](CC(C)C)NC(=O)[C@H](Cc1c[nH]cn1)NC(=O)[C@H](CC(C)C)NC(=O)[C@H](CO)NC(=O)[C@H](Cc1c[nH]cn1)NC(=O)[C@H](Cc1ccccc1)NC(=O)[C@H](CO)NC(=O)CNC(=O)CNC(=O)[C@H](CCC(=O)O)NC(=O)[C@@H](N)CCC(=O)O)C(=O)N[C@@H](Cc1ccccc1)C(=O)N[C@@H](CCC(=O)O)C(N)=O` [Seq ID No. 55, EEGGSFHSLHLLFE] as the compound, how does the “solubility in aqueous solution, in words” value [1] read?
**A.** The value was “more soluble”.

**Q.** Which “solubility in aqueous solution, in words” value [1] does the source give for `CC[C@H](C)[C@H](NC(=O)[C@@H]1CCCN1C(=O)[C@@H](NC(=O)[C@H](CC(N)=O)NC(=O)[C@@H](NC(=O)[C@H](Cc1ccc(O)cc1)NC(=O)[C@H](CCC(=O)O)NC(=O)[C@H](CCC(=O)O)NC(=O)[C@H](Cc1ccccc1)NC(=O)[C@H](CC(C)C)NC(=O)[C@H](CC(C)C)NC(=O)[C@H](Cc1c[nH]cn1)NC(=O)[C@H](CC(C)C)NC(=O)[C@H](CO)NC(=O)[C@H](Cc1c[nH]cn1)NC(=O)[C@H](Cc1ccccc1)NC(=O)[C@@H](N)CO)[C@@H](C)O)[C@@H](C)CC)C(=O)N[C@@H](CO)C(=O)N[C@@H](CC(C)C)C(=O)N[C@@H](CC(C)C)C(N)=O` [TX301] here?
**A.** The value was “limited solubility in aqueous solutions; also recorded: sparingly soluble”.

**Q.** Which “solubility in aqueous solution, in words” value [1] does the source give for HSLHLLFEEY-NH2 [TX303-313, HSLHLLFEEY] here?
**A.** Its value is “sparingly soluble”.

**Q.** With “TX313: 20 amino acid Tax peptide beginning at amino acid 313, overlaps TX301 by 8 amino acids” as the compound, how does the “effect on Tax-mediated enhancement of CREB binding to DNA (complex formation), in words” value (Tax-CREB interaction; EMSA, CREB + Tax + peptide) read?
**A.** The value was “slight enhancement of complex formation at some concentrations”.

**Q.** What about the fold enhancement (Tax-CREB interaction; Table 4, TX313 35 μM, 3.4 nM CREB, Tax without peptide 4.48, densitometry) of the same compound?
**A.** Its fold enhancement is 5.16 fold.

**Q.** What about the fold enhancement (Tax-CREB interaction; Table 4, TX313 70 μM, 3.4 nM CREB, Tax without peptide 4.48, densitometry) of the same compound?
**A.** Its fold enhancement is 5.60 fold.

**Q.** What about the fold enhancement (Tax-CREB interaction; Table 4, TX313 140 μM, 3.4 nM CREB, Tax without peptide 4.48, densitometry) of the same compound?
**A.** The fold enhancement was 4.49 fold.

**Q.** What about the “dose dependence of the effect on Tax-mediated enhancement, in words” value (Tax-CREB interaction; titration in EMSA) of the same compound?
**A.** The value was “did not have a dose dependent affect; also recorded: no dose dependence”.

**Q.** Which fold enhancement (Tax-CREB interaction; Table 8, SCM2 0.75 μM, 2.3 nM CREB, Tax without peptide 17.0) does the source give for FLSEFLHSHL [SCM2, reference compound] here?
**A.** Its fold enhancement is 17.9 fold.

**Q.** And the fold enhancement (Tax-CREB interaction; Table 8, SCM2 1.50 μM, 2.3 nM CREB, Tax without peptide 17.0)?
**A.** Its fold enhancement is 17.8 fold.

**Q.** And the fold enhancement (Tax-CREB interaction; Table 8, SCM2 7.50 μM, 2.3 nM CREB, Tax without peptide 17.0)?
**A.** Its fold enhancement is 14.5 fold.

**Q.** What about the fold enhancement (Tax-CREB interaction; Table 8, SCM2 15.00 μM, 2.3 nM CREB, Tax without peptide 17.0) of the same compound?
**A.** The fold enhancement was 9.7 fold.

**Q.** What about the fold enhancement (Tax-CREB interaction; Table 8, SCM2 75.00 μM, 2.3 nM CREB, Tax without peptide 17.0) of the same compound?
**A.** The fold enhancement was 3.3 fold.

**Q.** What about the fold enhancement (Tax-CREB interaction; Table 8, SCM2 150.00 μM, 2.3 nM CREB, Tax without peptide 17.0) of the same compound?
**A.** Its fold enhancement is 1.1 fold.

**Q.** With `CC(C)C[C@H](NC(=O)[C@H](CC(C)C)NC(=O)[C@H](Cc1c[nH]cn1)NC(=O)[C@H](CC(C)C)NC(=O)[C@H](CO)NC(=O)[C@H](Cc1c[nH]cn1)NC(=O)[C@H](Cc1ccccc1)NC(=O)[C@H](CO)NC(=O)CNC(=O)CNC(=O)[C@H](CCC(=O)O)NC(=O)[C@@H](N)CCC(=O)O)C(=O)N[C@@H](Cc1ccccc1)C(=O)N[C@@H](CCC(=O)O)C(=O)N[C@@H](CCC(=O)O)C(=O)N[C@@H](CCC(=O)O)C(N)=O` [Seq ID No. 56, EEGGSFHSLHLLFEEE] as the compound, how does the “solubility in aqueous solution, in words” value [1] read?
**A.** Its value is “more soluble”.

**Q.** With `CC(C)C[C@H](NC(=O)[C@H](CC(C)C)NC(=O)[C@H](Cc1c[nH]cn1)NC(=O)[C@H](CC(C)C)NC(=O)[C@H](CO)NC(=O)[C@H](Cc1c[nH]cn1)NC(=O)[C@H](Cc1ccccc1)NC(=O)[C@@H](N)CO)C(=O)N[C@@H](Cc1ccccc1)C(=O)N[C@@H](CCC(=O)O)C(=O)N[C@@H](CCC(=O)O)C(=O)N[C@@H](CCC(=O)O)C(N)=O` [Seq ID No. 54, SFHSLHLLFEEE] as the compound, how does the “solubility in aqueous solution, in words” value [1] read?
**A.** Its value is “more soluble”.
